Publication PMC7367873, “Dissecting the sequence determinants for dephosphorylation by the catalytic subunits of phosphatases PP1 and PP2A” (Nature Communications, 2020)

Columns and labels:
[1] = system: GFP-14-3-3β and its binding proteins; test: GFP-14-3-3β co-IP with LC-MS/MS label-free quantification, untreated versus PP1c-treated; set-up: species or system human; settings: PP1 vs untreated; label-free quantification
Experimental: (§1) HeLa Kyoto cells expressing transiently transfected pEGFP(C1)-14-3-3β or pEGFP(C1) control plasmid, were incubated with 20 nM Calyculin A (# 9902 S, Cell Signaling Technology) for 12 min. Cells were washed twice on ice with cold PBS and after addition of 500 µL lysis buffer (100 mM NaCl, 10 mM Tris, 0.1% IGEPAL, 1 mM EDTA, 1 mM EGTA, 20 nM Calyculin A, 1x cOmplete Mini protease inhibitor cocktail (Sigma), 1 mM DTT, 1 mM MnCl2) cells were scraped from plates, lysed by 10 pushes through an injection needle (21 G, BD) and the insoluble fraction was pelleted by centrifugation (10 min, 10^4 rcf, 4 °C). Supernatants were then subjected to incubation with 1 µM recombinant phosphatase or buffer for 1 h at 30 °C. Next, we subjected samples to immunoprecipitation using α-GFP nanobodies covalently coupled to agarose beads (2 h, 4 °C, obtained from the EMBL PEPcore Core Facility). Beads were then washed three times with lysis buffer and samples were eluted in 1x LDS sample buffer (Thermo Fisher Scientific) by heating to 70 °C for 10 min.
(§2) The samples were then reduced with 25 mM dithiothreitol (10 min at 70 °C) and alkylated with 55 mM chloroacetamide (room temperature, 30 min, in the dark). Proteins were run on a precast 4–12% NuPAGE gel (ThermoFisher Scientific) for about 1 cm to concentrate the sample prior to in-gel tryptic digestion, which was performed according to the standard procedures. The peptides obtained were dried to completeness and resuspended in 12 µL of buffer A (0.1% FA), and 5 µL of sample were injected per MS measurement. The experiment was carried out in three independent replicates.
(§3) The samples were analyzed by LC-MS/MS on a Dionex Ultimate 3000 nano-HPLC coupled online to a Fusion Lumos Tribrid mass spectrometer (Thermo Fisher Scientific). Peptides were delivered to a trap column (75 µm × 2 cm, packed in-house with 5 µm C18 resin; Reprosil PUR AQ, Dr. Maisch) and washed using 0.1% FA at a flow rate of 5 µL/min for 10 min. Subsequently, peptides were transferred to an analytical column (75 µm × 45 cm, packed in-house with 3 µm C18 resin; Reprosil Gold) applying a flow rate of 300 nL/min and separated using a 60 min linear gradient from 4% to 32% LC solvent B (0.1% FA, 5% DMSO in ACN) in LC solvent A (0.1% FA in 5% DMSO). The eluate from the analytical column was sprayed via a stainless steel emitter (Thermo Fisher Scientific) at a source voltage of 2.1 kV into the mass spectrometer. The transfer capillary was heated to 275 °C. The Fusion Lumos was operated in positive ionization mode and data-dependent acquisition (DDA), automatically switching between MS1 and MS2 spectrum acquisition. Full scan MS1 spectra were recorded in the Orbitrap from 360 to 1300 m/z at a resolution of 60k (automatic gain control (AGC) target value of 4e5 charges, maximum injection time (maxIT) of 50 ms). Up to 20 peptide precursors were isolated (isolation window, 1.7 m/z; maximum injection time, 25 ms; and AGC value, 1e5), fragmented by high-energy collision-induced dissociation (HCD) using 30% normalized collision energy (NCE), and analyzed at a resolution of 15k in the Orbitrap. Precursor ions that were singly charged, unassigned, or with charge states >6+ were excluded. The dynamic exclusion duration of fragmented precursor ions was 20 s.
(§4) Peptide and protein identification and LFQ were performed using MaxQuant software (version 1.6.1.0)[64] by searching the data against all canonical protein sequences as annotated in the Swissprot reference database (human proteins only, 20193 entries, downloaded 22 March 2016, internally annotated with PFAM domains) using the embedded search engine Andromeda[65]. The MaxQuant search was performed using two variable modifications; oxidation of methionine and N-terminal protein acetylation. Carbamidomethylation on cysteines was specified as a fixed modification. Trypsin (Trypsin/P) was specified as the proteolytic enzyme with up to two allowed missed cleavage sites.

GFP-14-3-3β = GFP-14-3-3β co-IP with LC-MS/MS, untreated GFP-14-3-3β versus GFP control (14-3-3 interactome); format: binding, human; settings: untreated vs GFP; label-free quantification
Experimental: as §1, §2, §3, §4

Row | Molecule | Difference (log2), PP1 vs untreated [1] | Difference (log2), untreated vs GFP (GFP-14-3-3β)
1 | FAM83B (protein, UniProt Q5T0W9 1-1011, looked up) Protein FAM83B: METSSMLSSLNDECKSDNYIEPHYKEWYRVAIDILIEHGLEAYQEFLVQERVSDFLAEEEINYILKNVQKVAQSTAHGTDDSCDDTLSSGTYWPVESDVEAPNLDLGWPYVMPGLLGGTHIDLLFHPPRAHLLTIKETIRKMIKEARKVIALVMDIFTDVDIFKEIVEASTRGVSVYILLDESNFNHFLNMTEKQGCSVQRLRNIRVRTVKGQDYLSKTGAKFHGKMEQKFLLVDCQKVMYGSYSYMWSFEKAHLSMVQIITGQLVESFDEEFRTLYARSCVPSSFAQEESARVKHGKALWENGTYQHSVSSLASVSSQRNLFGRQDKIHKLDSSYFKNRGIYTLNEHDKYNIRSHGYKPHFVPNFNGPNAIRQFQPNQINENWKRHSYAGEQPETVPYLLLNRALNRTNNPPGNWKKPSDSLSVASSSREGYVSHHNTPAQSFANRLAQRKTTNLADRNSNVRRSFNGTDNHIRFLQQRMPTLEHTTKSFLRNWRIESYLNDHSEATPDSNGSALGDRFEGYDNPENLKANALYTHSRLRSSLVFKPTLPEQKEVNSCTTGSSNSTIIGSQGSETPKEVPDTPTNVQHLTDKPLPESIPKLPLQSEAPKMHTLQVPENHSVALNQTTNGHTESNNYIYKTLGVNKQTENLKNQQTENLLKRRSFPLFDNSKANLDPGNSKHYVYSTLTRNRVRQPEKPKEDLLKSSKSMHNVTHNLEEDEEEVTKRNSPSGTTTKSVSIAALLDVNKEESNKELASKKEVKGSPSFLKKGSQKLRSLLSLTPDKKENLSKNKAPAFYRLCSSSDTLVSEGEENQKPKKSDTKVDSSPRRKHSSSSNSQGSIHKSKEDVTVSPSQEINAPPDENKRTPSPGPVESKFLERAGDASAPRFNTEQIQYRDSREINAVVTPERRPTSSPRPTSSELLRSHSTDRRVYSRFEPFCKIESSIQPTSNMPNTSINRPEIKSATMGNSYGRSSPLLNYNTGVYRSYQPNENKFRGFMQKFGNFIHKNK | 1.224 log2 | -0.8224 log2
2 | NCBP1 (protein, UniProt Q09161 1-790, looked up) Nuclear cap-binding protein …: MSRRRHSDENDGGQPHKRRKTSDANETEDHLESLICKVGEKSACSLESNLEGLAGVLEADLPNYKSKILRLLCTVARLLPEKLTIYTTLVGLLNARNYNFGGEFVEAMIRQLKESLKANNYNEAVYLVRFLSDLVNCHVIAAPSMVAMFENFVSVTQEEDVPQVRRDWYVYAFLSSLPWVGKELYEKKDAEMDRIFANTESYLKRRQKTHVPMLQVWTADKPHPQEEYLDCLWAQIQKLKKDRWQERHILRPYLAFDSILCEALQHNLPPFTPPPHTEDSVYPMPRVIFRMFDYTDDPEGPVMPGSHSVERFVIEENLHCIIKSHWKERKTCAAQLVSYPGKNKIPLNYHIVEVIFAELFQLPAPPHIDVMYTTLLIELCKLQPGSLPQVLAQATEMLYMRLDTMNTTCVDRFINWFSHHLSNFQFRWSWEDWSDCLSQDPESPKPKFVREVLEKCMRLSYHQRILDIVPPTFSALCPANPTCIYKYGDESSNSLPGHSVALCLAVAFKSKATNDEIFSILKDVPNPNQDDDDDEGFSFNPLKIEVFVQTLLHLAAKSFSHSFSALAKFHEVFKTLAESDEGKLHVLRVMFEVWRNHPQMIAVLVDKMIRTQIVDCAAVANWIFSSELSRDFTRLFVWEILHSTIRKMNKHVLKIQKELEEAKEKLARQHKRRSDDDDRSSDRKDGVLEEQIERLQEKVESAQSEQKNLFLVIFQRFIMILTEHLVRCETDGTSVLTPWYKNCIERLQQIFLQHHQIIQQYMVTLENLLFTAELDPHILAVFQQFCALQA | 1.197 log2 | -0.001907 log2
3 | ERLIN1 (protein, UniProt O75477 1-348, looked up) Erlin-1: MNMTQARVLVAAVVGLVAVLLYASIHKIEEGHLAVYYRGGALLTSPSGPGYHIMLPFITTFRSVQTTLQTDEVKNVPCGTSGGVMIYIDRIEVVNMLAPYAVFDIVRNYTADYDKTLIFNKIHHELNQFCSAHTLQEVYIELFDQIDENLKQALQKDLNLMAPGLTIQAVRVTKPKIPEAIRRNFELMEAEKTKLLIAAQKQKVVEKEAETERKKAVIEAEKIAQVAKIRFQQKVMEKETEKRISEIEDAAFLAREKAKADAEYYAAHKYATSNKHKLTPEYLELKKYQAIASNSKIYFGSNIPNMFVDSSCALKYSDIRTGRESSLPSKEALEPSGENVIQNKESTG | 1.221 log2 | 0.5977 log2

Further lines, with some results ahead:

Row | Difference (log2), PP1 vs untreated [1] | Molecule | Difference (log2), untreated vs GFP (GFP-14-3-3β)
4 | 1.211 log2 | RBM3 (protein, UniProt P98179 1-157, looked up) RNA-binding protein 3: MSSEEGKLFVGGLNFNTDEQALEDHFSSFGPISEVVVVKDRETQRSRGFGFITFTNPEHASVAMRAMNGESLDGRQIRVDHAGKSARGTRGGGFGAHGRGRSYSRGGGDQGYGSGRYYDSRPGGYGYGYGRSRDYNGRNQGGYDRYSGGNYRDNYDN | 0.8571 log2
5 | 1.257 log2 | PRSS56 (protein, UniProt P0CW18 20-603, looked up) Serine protease 56: HPLYTRLPPSALQVLSAQGTQALQAAQRSAQWAINRVAMEIQHRSHECRGSGRPRPQALLQDPPEPGPCGERRPSTANVTRAHGRIVGGSAAPPGAWPWLVRLQLGGQPLCGGVLVAASWVLTAAHCFVGAPNELLWTVTLAEGSRGEQAEEVPVNRILPHPKFDPRTFHNDLALVQLWTPVSPGGSARPVCLPQEPQEPPAGTACAIAGWGALFEDGPEAEAVREARVPLLSTDTCRRALGPGLRPSTMLCAGYLAGGVDSCQGDSGGPLTCSEPGPRPREVLFGVTSWGDGCGEPGKPGVYTRVAVFKDWLQEQMSASSSREPSCRELLAWDPPQELQADAARLCAFYARLCPGSQGACARLAHQQCLQRRRRCELRSLAHTLLGLLRNAQELLGPRPGLRRLAPALALPAPALRESPLHPARELRLHSGSRAAGTRFPKRRPEPRGEANGCPGLEPLRQKLAALQGAHAWILQVPSEHLAMNFHEVLADLGSKTLTGLFRAWVRAGLGGRHVAFSGLVGLEPATLARSLPRLLVQALQAFRVAALAEGEPEGPWMDVGQGPGLERKGHHPLNPQVPPARQP | -0.4107 log2
6 | 1.256 log2 | PFKL (protein, UniProt P17858 2-780, looked up) ATP-dependent …: AAVDLEKLRASGAGKAIGVLTSGGDAQGMNAAVRAVTRMGIYVGAKVFLIYEGYEGLVEGGENIKQANWLSVSNIIQLGGTIIGSARCKAFTTREGRRAAAYNLVQHGITNLCVIGGDGSLTGANIFRSEWGSLLEELVAEGKISETTARTYSHLNIAGLVGSIDNDFCGTDMTIGTDSALHRIMEVIDAITTTAQSHQRTFVLEVMGRHCGYLALVSALASGADWLFIPEAPPEDGWENFMCERLGETRSRGSRLNIIIIAEGAIDRNGKPISSSYVKDLVVQRLGFDTRVTVLGHVQRGGTPSAFDRILSSKMGMEAVMALLEATPDTPACVVTLSGNQSVRLPLMECVQMTKEVQKAMDDKRFDEATQLRGGSFENNWNIYKLLAHQKPPKEKSNFSLAILNVGAPAAGMNAAVRSAVRTGISHGHTVYVVHDGFEGLAKGQVQEVGWHDVAGWLGRGGSMLGTKRTLPKGQLESIVENIRIYGIHALLVVGGFEAYEGVLQLVEARGRYEELCIVMCVIPATISNNVPGTDFSLGSDTAVNAAMESCDRIKQSASGTKRRVFIVETMGGYCGYLATVTGIAVGADAAYVFEDPFNIHDLKVNVEHMTEKMKTDIQRGLVLRNEKCHDYYTTEFLYNLYSSEGKGVFDCRTNVLGHLQQGGAPTPFDRNYGTKLGVKAMLWLSEKLREVYRKGRVFANAPDSACVIGLKKKAVAFSPVTELKKDTDFEHRMPREQWWLSLRLMLKMLAQYRISMAAYVSGELEHVTRRTLSMDKGF | -0.3869 log2
